Assays:
[1] = target: EfmRseP with substitution N364A (Enterococcus faecium P21) (UniProt I3U2R6); test: flow cytometry on cells; noninduced L. plantarum cells expressing the RseP variant, 1 μM FITC-labeled EntK1 in 100 μM triammonium citrate pH 6.5, 20 min, room temperature; median fluorescence intensity relative to cells expressing EfmRseP (rMFI), triplicate
[2] = target: Truncation of EfmRseP (1–39, 139–422) Δ40–138 (Enterococcus faecium P21) (UniProt I3U2R6); test: as above
[3] = target: EfmRseP with substitution P369A (Enterococcus faecium P21) (UniProt I3U2R6); test: as above
[4] = target: RseP from Lactiplantibacillus plantarum WCFS1, C-terminal 6× His-tag (Lactiplantibacillus plantarum WCFS1); test: as above
[5] = target: RseP from Enterococcus faecium P21, C-terminal 6× His-tag (Enterococcus faecium P21) (UniProt I3U2R6); test: as above
[6] = target: Fusion of EfmRseP (1–325) and LpRseP (326–425) (Enterococcus faecium P21 | Lactiplantibacillus plantarum WCFS1) (UniProt I3U2R6); test: as above
[7] = target: Fusion of LpRseP (1–201, 328–425) and EfmRseP (202–327) (Lactiplantibacillus plantarum WCFS1 | Enterococcus faecium P21) (UniProt I3U2R6); test: as above
[8] = target: EfmRseP with substitution E19A (Enterococcus faecium P21) (UniProt I3U2R6); test: as above
[9] = target: Fusion of LpRseP (1–171, 326–425) and EfmRseP (172–325) (Lactiplantibacillus plantarum WCFS1 | Enterococcus faecium P21) (UniProt I3U2R6); test: as above
[10] = target: EfmRseP with substitution P367A (Enterococcus faecium P21) (UniProt I3U2R6); test: as above
[11] = target: Fusion of EfmRseP (1–221) and LpRseP (222–425) (Enterococcus faecium P21 | Lactiplantibacillus plantarum WCFS1) (UniProt I3U2R6); test: as above
[12] = target: EfmRseP with substitution H18A (Enterococcus faecium P21) (UniProt I3U2R6); test: as above
[13] = target: EfmRseP with the triple alanine substitution of the HExxH motif (Enterococcus faecium P21) (UniProt I3U2R6); test: as above
[14] = target: EfmRseP with substitution H22A (Enterococcus faecium P21) (UniProt I3U2R6); test: as above
[15] = target: EfmRseP with substitution D372A (Enterococcus faecium P21) (UniProt I3U2R6); test: as above
[16] = target: RseP from Enterococcus faecium P21, without His-tag (Enterococcus faecium P21) (UniProt I3U2R6)
[17] = target: RseP from Staphylococcus arlettae LMGT 4134, without His-tag (Staphylococcus arlettae LMGT 4134)
[18] = target: RseP from Staphylococcus haemolyticus, without His-tag (Staphylococcus haemolyticus)
[19] = target: RseP from Lactiplantibacillus plantarum WCFS1, without His-tag (Lactiplantibacillus plantarum WCFS1)
[20] = target: RseP from Staphylococcus aureus ATCC 14458, without His-tag (Staphylococcus aureus ATCC 14458)
[21] = target: RseP from Enterococcus faecalis V583, without His-tag (Enterococcus faecalis V583) (UniProt Q9RPP2)
[22] = target: RseP from Lactococcus lactis IL1403, without His-tag (Lactococcus lactis IL1403)

FITC-labeled Enterocin K1 (peptide)
rMFI % (relative median fluorescence intensity) [1]: 83.4%
rMFI % (relative median fluorescence intensity) [2]: 7.4%
rMFI % (relative median fluorescence intensity) [3]: 84.4%
rMFI % (relative median fluorescence intensity) [4]: 0.41%
rMFI % (relative median fluorescence intensity) [5]: 100%
rMFI % (relative median fluorescence intensity) [6]: 97.6%
rMFI % (relative median fluorescence intensity) [7]: 54.8%
rMFI % (relative median fluorescence intensity) [8]: 65.4%
rMFI % (relative median fluorescence intensity) [9]: 78%
rMFI % (relative median fluorescence intensity) [10]: 89.1%
rMFI % (relative median fluorescence intensity) [11]: 37.6%
rMFI % (relative median fluorescence intensity) [12]: 61.6%
rMFI % (relative median fluorescence intensity) [13]: 0.5%
rMFI % (relative median fluorescence intensity) [14]: 59%
rMFI % (relative median fluorescence intensity) [15]: 80.6%
MIC50 of FITC-EntK1 (growth inhibition, microtiter plate) towards L. plantarum expressing this RseP [16]: 0.15 µM
MIC50 of FITC-EntK1 (growth inhibition, microtiter plate) towards L. plantarum expressing this RseP; footnote: low expression may contribute [17]: > 20 µM
MIC50 of FITC-EntK1 (growth inhibition, microtiter plate) towards L. plantarum expressing this RseP [18]: > 20 µM
MIC50 of FITC-EntK1 (growth inhibition, microtiter plate) towards L. plantarum expressing this RseP [19]: > 20 µM
MIC50 of FITC-EntK1 (growth inhibition, microtiter plate) towards L. plantarum expressing this RseP; footnote: low expression may contribute [20]: > 20 µM
MIC50 of FITC-EntK1 (growth inhibition, microtiter plate) towards L. plantarum expressing this RseP [21]: 0.6 µM
MIC50 of FITC-EntK1 (growth inhibition, microtiter plate) towards L. plantarum expressing this RseP [22]: > 20 µM

— PMC9672952
